Measurements as given in patent publication US20180371086A1.

Biological target: human CD3, on primary human T cells (human) (UniProt P07766)
Test: cell-based or functional assay

Chain of human CD3, on primary human T cells (human) (P07766 23-207 limits assumed): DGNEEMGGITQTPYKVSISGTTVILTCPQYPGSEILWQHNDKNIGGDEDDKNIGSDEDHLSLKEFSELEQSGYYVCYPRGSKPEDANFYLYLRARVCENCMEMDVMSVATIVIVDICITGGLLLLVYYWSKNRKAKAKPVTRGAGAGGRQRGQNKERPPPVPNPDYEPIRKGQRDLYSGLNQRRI

Work on PGT-121.60 (antibody) yielded a Ki-67 EC50; CD4 T cells; donor D1597; 7552-infected CEM cells greater than 100 µg/mL, a Ki-67 EC50; CD4 T cells; donor D1597; THRO-infected CEM cells greater than 100 µg/mL and a Ki-67 EC50; CD4 T cells; donor D1597; uninfected CEM cells greater than 100 µg/mL. For the same substance, the Ki-67 EC50; CD4 T cells; donor D2256; 7552-infected CEM cells was greater than 100 µg/mL, the Ki-67 EC50; CD4 T cells; donor D2256; THRO-infected CEM cells was greater than 100 µg/mL and the Ki-67 EC50; CD4 T cells; donor D2256; uninfected CEM cells was greater than 100 µg/mL. For the same substance, the Ki-67 EC50; CD4 T cells; donor D4246; 7552-infected CEM cells was greater than 100 µg/mL, the Ki-67 EC50; CD4 T cells; donor D4246; THRO-infected CEM cells was greater than 100 µg/mL and the Ki-67 EC50; CD4 T cells; donor D4246; uninfected CEM cells was greater than 100 µg/mL. For the same substance, the Ki-67 EC50; CD4 T cells; donor D4279; 7552-infected CEM cells was greater than 100 µg/mL, the Ki-67 EC50; CD4 T cells; donor D4279; THRO-infected CEM cells was greater than 100 µg/mL and the Ki-67 EC50; CD4 T cells; donor D4279; uninfected CEM cells was greater than 100 µg/mL. The Ki-67 EC50; CD8 T cells; donor D1597; 7552-infected CEM cells was greater than 100 µg/mL, the Ki-67 EC50; CD8 T cells; donor D1597; THRO-infected CEM cells was greater than 100 µg/mL and the Ki-67 EC50; CD8 T cells; donor D1597; uninfected CEM cells was greater than 100 µg/mL. The Ki-67 EC50; CD8 T cells; donor D2256; 7552-infected CEM cells was greater than 100 µg/mL, the Ki-67 EC50; CD8 T cells; donor D2256; THRO-infected CEM cells was greater than 100 µg/mL and the Ki-67 EC50; CD8 T cells; donor D2256; uninfected CEM cells was greater than 100 µg/mL. The Ki-67 EC50; CD8 T cells; donor D4246; 7552-infected CEM cells was greater than 100 µg/mL, the Ki-67 EC50; CD8 T cells; donor D4246; THRO-infected CEM cells was greater than 100 µg/mL and the Ki-67 EC50; CD8 T cells; donor D4246; uninfected CEM cells was greater than 100 µg/mL. The Ki-67 EC50; CD8 T cells; donor D4279; 7552-infected CEM cells was greater than 100 µg/mL, the Ki-67 EC50; CD8 T cells; donor D4279; THRO-infected CEM cells was greater than 100 µg/mL and the Ki-67 EC50; CD8 T cells; donor D4279; uninfected CEM cells was greater than 100 µg/mL. The Ki-67 Δ Emax; CD4 T cells; donor D1597; 7552-infected CEM cells was 1%, the Ki-67 Δ Emax; CD4 T cells; donor D1597; THRO-infected CEM cells was -1% and the Ki-67 Δ Emax; CD4 T cells; donor D1597; uninfected CEM cells was 1%. The Ki-67 Δ Emax; CD4 T cells; donor D2256; 7552-infected CEM cells was 0%, the Ki-67 Δ Emax; CD4 T cells; donor D2256; THRO-infected CEM cells was -2% and the Ki-67 Δ Emax; CD4 T cells; donor D2256; uninfected CEM cells was 0%. The Ki-67 Δ Emax; CD4 T cells; donor D4246; 7552-infected CEM cells was 0%, the Ki-67 Δ Emax; CD4 T cells; donor D4246; THRO-infected CEM cells was 0% and the Ki-67 Δ Emax; CD4 T cells; donor D4246; uninfected CEM cells was 0%. For the same substance, the Ki-67 Δ Emax; CD4 T cells; donor D4279; 7552-infected CEM cells was -1%, the Ki-67 Δ Emax; CD4 T cells; donor D4279; THRO-infected CEM cells was 1% and the Ki-67 Δ Emax; CD4 T cells; donor D4279; uninfected CEM cells was 1%. It also gave a Ki-67 Δ Emax; CD8 T cells; donor D1597; 7552-infected CEM cells of 0%, a Ki-67 Δ Emax; CD8 T cells; donor D1597; THRO-infected CEM cells of 0% and a Ki-67 Δ Emax; CD8 T cells; donor D1597; uninfected CEM cells of 0%. The Ki-67 Δ Emax; CD8 T cells; donor D2256; 7552-infected CEM cells was 0%, the Ki-67 Δ Emax; CD8 T cells; donor D2256; THRO-infected CEM cells was 0% and the Ki-67 Δ Emax; CD8 T cells; donor D2256; uninfected CEM cells was 0%. The Ki-67 Δ Emax; CD8 T cells; donor D4246; 7552-infected CEM cells was 0%, the Ki-67 Δ Emax; CD8 T cells; donor D4246; THRO-infected CEM cells was 0% and the Ki-67 Δ Emax; CD8 T cells; donor D4246; uninfected CEM cells was 0%. The Ki-67 Δ Emax; CD8 T cells; donor D4279; 7552-infected CEM cells was 0%, the Ki-67 Δ Emax; CD8 T cells; donor D4279; THRO-infected CEM cells was 0% and the Ki-67 Δ Emax; CD8 T cells; donor D4279; uninfected CEM cells was 0%. The PD-1 EC50; CD4 T cells; donor D1597; 7552-infected CEM cells was greater than 100 µg/mL, the PD-1 EC50; CD4 T cells; donor D1597; THRO-infected CEM cells was greater than 100 µg/mL and the PD-1 EC50; CD4 T cells; donor D1597; uninfected CEM cells was greater than 100 µg/mL. The PD-1 EC50; CD4 T cells; donor D2256; 7552-infected CEM cells was greater than 100 µg/mL, the PD-1 EC50; CD4 T cells; donor D2256; THRO-infected CEM cells was greater than 100 µg/mL and the PD-1 EC50; CD4 T cells; donor D2256; uninfected CEM cells was greater than 100 µg/mL. The PD-1 EC50; CD4 T cells; donor D4246; 7552-infected CEM cells was greater than 100 µg/mL, the PD-1 EC50; CD4 T cells; donor D4246; THRO-infected CEM cells was greater than 100 µg/mL and the PD-1 EC50; CD4 T cells; donor D4246; uninfected CEM cells was greater than 100 µg/mL. It also gave a PD-1 EC50; CD4 T cells; donor D4279; 7552-infected CEM cells greater than 100 µg/mL, a PD-1 EC50; CD4 T cells; donor D4279; THRO-infected CEM cells greater than 100 µg/mL and a PD-1 EC50; CD4 T cells; donor D4279; uninfected CEM cells greater than 100 µg/mL. For the same substance, the PD-1 EC50; CD8 T cells; donor D1597; 7552-infected CEM cells was greater than 100 µg/mL, the PD-1 EC50; CD8 T cells; donor D1597; THRO-infected CEM cells was greater than 100 µg/mL and the PD-1 EC50; CD8 T cells; donor D1597; uninfected CEM cells was greater than 100 µg/mL. The PD-1 EC50; CD8 T cells; donor D2256; 7552-infected CEM cells was greater than 100 µg/mL, the PD-1 EC50; CD8 T cells; donor D2256; THRO-infected CEM cells was greater than 100 µg/mL and the PD-1 EC50; CD8 T cells; donor D2256; uninfected CEM cells was greater than 100 µg/mL. For the same substance, the PD-1 EC50; CD8 T cells; donor D4246; 7552-infected CEM cells was greater than 100 µg/mL, the PD-1 EC50; CD8 T cells; donor D4246; THRO-infected CEM cells was greater than 100 µg/mL and the PD-1 EC50; CD8 T cells; donor D4246; uninfected CEM cells was greater than 100 µg/mL. The PD-1 EC50; CD8 T cells; donor D4279; 7552-infected CEM cells was greater than 100 µg/mL, the PD-1 EC50; CD8 T cells; donor D4279; THRO-infected CEM cells was greater than 100 µg/mL and the PD-1 EC50; CD8 T cells; donor D4279; uninfected CEM cells was greater than 100 µg/mL. The PD-1 Δ Emax; CD4 T cells; donor D1597; 7552-infected CEM cells was 0%, the PD-1 Δ Emax; CD4 T cells; donor D1597; THRO-infected CEM cells was 1% and the PD-1 Δ Emax; CD4 T cells; donor D1597; uninfected CEM cells was 0%. It also gave a PD-1 Δ Emax; CD4 T cells; donor D2256; 7552-infected CEM cells of -2%, a PD-1 Δ Emax; CD4 T cells; donor D2256; THRO-infected CEM cells of 1% and a PD-1 Δ Emax; CD4 T cells; donor D2256; uninfected CEM cells of 3%. For the same substance, the PD-1 Δ Emax; CD4 T cells; donor D4246; 7552-infected CEM cells was 2%, the PD-1 Δ Emax; CD4 T cells; donor D4246; THRO-infected CEM cells was 0% and the PD-1 Δ Emax; CD4 T cells; donor D4246; uninfected CEM cells was 0%. For the same substance, the PD-1 Δ Emax; CD4 T cells; donor D4279; 7552-infected CEM cells was 1%, the PD-1 Δ Emax; CD4 T cells; donor D4279; THRO-infected CEM cells was -2% and the PD-1 Δ Emax; CD4 T cells; donor D4279; uninfected CEM cells was -1%. The PD-1 Δ Emax; CD8 T cells; donor D1597; 7552-infected CEM cells was 0%, the PD-1 Δ Emax; CD8 T cells; donor D1597; THRO-infected CEM cells was 0% and the PD-1 Δ Emax; CD8 T cells; donor D1597; uninfected CEM cells was 0%. The PD-1 Δ Emax; CD8 T cells; donor D2256; 7552-infected CEM cells was 0%, the PD-1 Δ Emax; CD8 T cells; donor D2256; THRO-infected CEM cells was -1% and the PD-1 Δ Emax; CD8 T cells; donor D2256; uninfected CEM cells was 0%. The PD-1 Δ Emax; CD8 T cells; donor D4246; 7552-infected CEM cells was 0%, the PD-1 Δ Emax; CD8 T cells; donor D4246; THRO-infected CEM cells was 0% and the PD-1 Δ Emax; CD8 T cells; donor D4246; uninfected CEM cells was -1%. For the same substance, the PD-1 Δ Emax; CD8 T cells; donor D4279; 7552-infected CEM cells was 0%, the PD-1 Δ Emax; CD8 T cells; donor D4279; THRO-infected CEM cells was 0% and the PD-1 Δ Emax; CD8 T cells; donor D4279; uninfected CEM cells was 0%.
